The numbers were not newly measured in PMC3567247, which cites them from elsewhere.

Read-outs that look alike come from different tables or passages of the source. Bounds are passed on as bounds.

Targets include CD40L (Homo sapiens) (UniProt P29965); TACI (Homo sapiens) (UniProt O14836); BPTI (Bos taurus) (UniProt P00974); CD40 (Homo sapiens) (UniProt P25942); Im9 (Escherichia coli) (UniProt P13479); Ribonuclease Inhibitor (UniProt P13489).
The target in series [1] is BCMA (Homo sapiens) (UniProt Q02223). The series can be described thus: surface plasmon resonance. (SPR reads the build-up and loss of mass on a sensor chip optically.)
Sequence of BCMA (Homo sapiens) (Q02223 whole entry): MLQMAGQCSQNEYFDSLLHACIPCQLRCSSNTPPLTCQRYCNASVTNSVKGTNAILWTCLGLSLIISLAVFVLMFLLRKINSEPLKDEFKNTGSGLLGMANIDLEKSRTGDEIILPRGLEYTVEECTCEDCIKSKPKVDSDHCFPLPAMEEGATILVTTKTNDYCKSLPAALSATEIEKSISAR
For series [2], the target named is BR3 (Homo sapiens) (UniProt Q96RJ3). As to the kind of experiment: surface plasmon resonance.
Sequence of BR3 (Homo sapiens) (Q96RJ3 whole entry): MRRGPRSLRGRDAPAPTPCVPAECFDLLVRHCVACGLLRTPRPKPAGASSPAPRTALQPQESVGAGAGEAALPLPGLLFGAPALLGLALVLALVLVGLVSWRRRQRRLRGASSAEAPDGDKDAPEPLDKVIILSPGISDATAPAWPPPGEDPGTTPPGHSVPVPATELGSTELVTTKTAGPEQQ
Series [3] has the same target.
For series [4], the target named is BCMA (Homo sapiens) (UniProt Q02223).
Series [5] has as its target Barstar (Bacillus amyloliquefaciens) (UniProt P11540).
The target of series [6] is Ribonuclease Inhibitor (Sus scrofa) (UniProt P10775).
Sequence of Ribonuclease Inhibitor (Sus scrofa) (P10775 whole entry): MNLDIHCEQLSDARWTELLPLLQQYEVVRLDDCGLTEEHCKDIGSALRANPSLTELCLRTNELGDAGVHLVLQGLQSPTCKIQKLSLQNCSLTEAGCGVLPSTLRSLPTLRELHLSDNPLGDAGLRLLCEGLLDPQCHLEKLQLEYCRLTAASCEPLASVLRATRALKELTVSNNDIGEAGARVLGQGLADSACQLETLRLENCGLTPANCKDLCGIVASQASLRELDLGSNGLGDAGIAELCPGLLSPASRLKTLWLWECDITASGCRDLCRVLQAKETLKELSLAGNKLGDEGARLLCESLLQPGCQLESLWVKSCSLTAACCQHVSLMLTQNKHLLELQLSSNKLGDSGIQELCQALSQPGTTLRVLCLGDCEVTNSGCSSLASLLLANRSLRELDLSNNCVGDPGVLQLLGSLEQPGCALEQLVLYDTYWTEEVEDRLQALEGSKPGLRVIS

Sequence of Ribonuclease A (P61823 27-150): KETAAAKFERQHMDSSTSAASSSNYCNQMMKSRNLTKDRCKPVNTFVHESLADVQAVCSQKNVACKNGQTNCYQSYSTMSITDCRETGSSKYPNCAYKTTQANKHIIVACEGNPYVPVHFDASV
Sequence of APRIL (O75888 105-250): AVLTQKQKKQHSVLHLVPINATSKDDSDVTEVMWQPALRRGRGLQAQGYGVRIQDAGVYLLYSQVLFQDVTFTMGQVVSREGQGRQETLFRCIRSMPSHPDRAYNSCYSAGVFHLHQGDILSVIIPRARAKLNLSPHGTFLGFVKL
Sequence of CD40 (Homo sapiens) (P25942 21-277): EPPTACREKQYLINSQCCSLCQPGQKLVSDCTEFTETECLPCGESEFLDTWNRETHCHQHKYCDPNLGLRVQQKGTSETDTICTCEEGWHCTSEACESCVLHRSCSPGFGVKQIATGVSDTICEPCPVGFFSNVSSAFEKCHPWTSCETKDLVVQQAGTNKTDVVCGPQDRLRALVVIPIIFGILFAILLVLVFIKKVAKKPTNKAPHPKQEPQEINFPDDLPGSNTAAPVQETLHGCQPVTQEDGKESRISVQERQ
Sequence of CD40 (P25942 21-277): as above
Sequence of Ribonuclease Inhibitor (P13489 2-461): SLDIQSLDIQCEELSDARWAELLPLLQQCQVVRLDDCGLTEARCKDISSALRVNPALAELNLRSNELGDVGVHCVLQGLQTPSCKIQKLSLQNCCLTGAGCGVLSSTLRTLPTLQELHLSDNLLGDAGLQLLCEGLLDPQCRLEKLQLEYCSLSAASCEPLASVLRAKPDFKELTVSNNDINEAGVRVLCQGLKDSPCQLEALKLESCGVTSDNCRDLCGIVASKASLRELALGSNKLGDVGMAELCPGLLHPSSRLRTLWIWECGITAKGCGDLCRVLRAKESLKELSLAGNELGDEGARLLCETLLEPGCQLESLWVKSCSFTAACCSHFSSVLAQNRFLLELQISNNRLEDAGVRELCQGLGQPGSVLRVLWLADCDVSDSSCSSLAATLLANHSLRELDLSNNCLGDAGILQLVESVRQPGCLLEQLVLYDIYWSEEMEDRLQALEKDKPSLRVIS
Sequence of Im9 (Escherichia coli) (P13479 whole entry): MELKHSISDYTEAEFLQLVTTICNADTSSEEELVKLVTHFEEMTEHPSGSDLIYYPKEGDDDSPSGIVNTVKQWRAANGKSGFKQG
Sequence of Colicin E9 nuclease (P09883 449-582): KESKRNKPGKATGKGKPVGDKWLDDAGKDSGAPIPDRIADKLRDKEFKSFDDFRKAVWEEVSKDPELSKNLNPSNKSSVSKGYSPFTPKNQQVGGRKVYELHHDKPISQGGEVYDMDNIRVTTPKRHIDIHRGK
Sequence of Barnase (P00648 48-157): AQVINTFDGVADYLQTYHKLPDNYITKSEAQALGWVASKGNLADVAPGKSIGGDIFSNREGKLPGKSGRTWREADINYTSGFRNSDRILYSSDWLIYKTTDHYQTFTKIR
Sequence of Barstar (Bacillus amyloliquefaciens) (P11540 2-90): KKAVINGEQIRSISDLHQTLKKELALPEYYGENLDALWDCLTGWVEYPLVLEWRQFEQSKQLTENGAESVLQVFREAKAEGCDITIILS
Sequence of CD40L (Homo sapiens) (P29965 113-261): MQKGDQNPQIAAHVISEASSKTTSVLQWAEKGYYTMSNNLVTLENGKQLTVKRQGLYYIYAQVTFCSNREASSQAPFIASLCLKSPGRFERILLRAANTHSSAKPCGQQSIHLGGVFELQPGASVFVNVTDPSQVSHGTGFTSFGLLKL
Sequence of CD40L (P29965 113-261): as above
Sequence of TACI (Homo sapiens) (O14836 whole entry): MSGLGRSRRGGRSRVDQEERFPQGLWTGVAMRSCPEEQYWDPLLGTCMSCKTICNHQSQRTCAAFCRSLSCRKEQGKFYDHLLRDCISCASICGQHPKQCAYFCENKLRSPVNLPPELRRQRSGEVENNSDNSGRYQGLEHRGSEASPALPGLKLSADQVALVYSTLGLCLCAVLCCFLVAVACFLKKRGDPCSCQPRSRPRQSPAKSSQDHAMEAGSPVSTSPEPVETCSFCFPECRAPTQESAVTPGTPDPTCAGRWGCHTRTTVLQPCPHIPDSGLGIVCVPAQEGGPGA

The Kd is the constant that tells how readily two partners part at equilibrium. Regarding APRIL (from UniProt O75888), the values for the Kd in the series with BCMA (Homo sapiens) [1] and with BR3 (Homo sapiens) [2] were 15 nM and over 3000 nM, respectively.

As to CD40 (from UniProt P25942), the Kd with CD40L (Homo sapiens) was 13000 nM.

As to BAFF (from UniProt Q9Y275), the Kd with BR3 (Homo sapiens) [3] was 15 nM; with BCMA (Homo sapiens) [4], 1500 nM; in the series with TACI (Homo sapiens), 13 nM.

As for trypsinogen (from UniProt P00760), the Kd in the series with BPTI (Bos taurus) is 0.06 pM.

For the substance CD40L (from UniProt P29965), the Kd with CD40 (Homo sapiens) is 13000 nM.

For the substance Barnase (from UniProt P00648), in series [5], the dissociation constant (Kd) is 0.0002 nM.

On to “Colicin E9 nuclease (from UniProt P09883)”, for which the equilibrium dissociation constant (Kd) with Im9 (Escherichia coli) is 0.024 pM.

Regarding Ribonuclease A (from UniProt P61823), the dissociation constant (Kd) (in series [6]; with Ribonuclease Inhibitor) was 0.059 pM throughout.
